Substitutions are numbered along the chain they refer to. Numbers in names are those of the source. One block for each binder: values may come before it.
Legend:
human Aβ 1-28 peptide [1] = target: human Aβ 1-28 peptide (human); assay: SPR; KD limit divided by the KD for human 3pE Aβ
Scrambled 3pE-28 [2] = target: T1, Scrambled 3pE-28 (human); assay: SPR; KD limit divided by the KD for human 3pE Aβ
T1 construct: also called scrambled Aβ 3pE-28; Aβ 3pE-28 peptide with amino acids 3-9 scrambled
T1 peptide: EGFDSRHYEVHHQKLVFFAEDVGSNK

mouse Aβ 3pE-28 peptide [3] = target: T2, mouse Aβ 3pE-28 peptide (mouse, pyroglutamate (pE) at the N-terminus, residue 3 of Aβ); assay: SPR; KD for this peptide divided by the KD for human 3pE Aβ
T2 construct: also called rodent Aβ3pE-28
T2 peptide: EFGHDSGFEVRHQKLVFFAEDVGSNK

human Aβ 3pE-28 peptide [4] = target: T3, human Aβ 3pE-28 peptide (human, pyroglutamate (pE) at the N-terminus, residue 3 of Aβ); assay: SPR, antibody captured on anti-human or anti-mouse Ig chip, peptide injected, 1:1 fit; N=9
T3 sequence (peptide, as listed by the source): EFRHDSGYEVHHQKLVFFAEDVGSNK

mouse Aβ 3pE-28 peptide [5] = target: T2, mouse Aβ 3pE-28 peptide; assay: SPR, antibody captured, peptide injected, 1:1 fit
human Aβ 1-28 peptide [6] = target: human Aβ 1-28 peptide (human); assay: SPR; no binding up to the maximum 1.2 µM tested
Scrambled 3pE-28 [7] = target: T1, Scrambled 3pE-28; assay: SPR; no binding up to the maximum 1.2 µM tested
HU-3pE-beta-Amyloid [8] = target: T4, HU-3pE-beta-Amyloid (human); assay: SPR (per Example 5); antigen peptide not given
T4 construct: also called the peptide

human FcRn [9] = target: T5, human FcRn (human, UniProt P55899 24-297; P61769 21-119); assay: FcRn binding affinity; method not described; average of 5-6 replicates
T5 construct: the construct is not described; also called FcRn (human)

cynomolgus FcRn [10] = target: T6, cynomolgus FcRn (cynomolgus, UniProt Q8SPV9 24-297; Q8SPW0 21-119); assay: as above
T6 construct: the construct is not described; also called FcRn (cyno)
T6 sequence (Q8SPV9 24-297 limits assumed, chain 1 of 2): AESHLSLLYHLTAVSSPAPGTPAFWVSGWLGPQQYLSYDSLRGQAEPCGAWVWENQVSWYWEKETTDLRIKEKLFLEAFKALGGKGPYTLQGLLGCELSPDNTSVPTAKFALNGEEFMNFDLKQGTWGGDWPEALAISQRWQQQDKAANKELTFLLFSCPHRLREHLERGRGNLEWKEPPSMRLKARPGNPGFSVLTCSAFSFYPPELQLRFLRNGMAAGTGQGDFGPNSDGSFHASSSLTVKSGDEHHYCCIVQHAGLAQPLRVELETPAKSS
T6 sequence (Q8SPW0 21-119 limits assumed, chain 2 of 2): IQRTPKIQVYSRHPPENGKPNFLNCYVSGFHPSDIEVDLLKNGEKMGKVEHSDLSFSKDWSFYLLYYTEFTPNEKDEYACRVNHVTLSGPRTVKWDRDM

HU-3pE-beta-Amyloid [11] = target: T4, HU-3pE-beta-Amyloid; assay: SPR; HU-3pE-beta-Amyloid 0.6 to 4.5 nM
human Aβ 3pE-28 peptide [12] = target: T3, human Aβ 3pE-28 peptide; assay: SPR; same value as in Table 5
human FcRn [13] = target: T5, human FcRn; assay: FcRn binding affinity; method not described
cynomolgus FcRn [14] = target: T6, cynomolgus FcRn; assay: FcRn binding affinity; method not described
human Aβ 3pE-40 peptide = human Aβ 3pE-40 peptide (human, pyroglutamate (pE) at the N-terminus, residue 3 of Aβ); assay: SPR (Biacore T200), antibody captured by anti-mouse antibody on CM5, peptide injected, 1:1 fit; mean
human Aβ 3pE-40 peptide (human, pyroglutamate (pE) at the N-terminus, residue 3 of Aβ), sequence (peptide, as listed by the source): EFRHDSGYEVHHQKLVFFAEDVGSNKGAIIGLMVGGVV

human Aβ 3pE-28 peptide [15] = target: T3, human Aβ 3pE-28 peptide; assay: SPR, antibody captured on anti-human or anti-mouse Ig chip, peptide injected, 1:1 fit; N=1
human Aβ1-40 peptide = human Aβ1-40 peptide (human); assay: SPR (Biacore T200), antibody captured, peptide injected
human Aβ1-40 peptide (human), sequence (peptide, as listed by the source): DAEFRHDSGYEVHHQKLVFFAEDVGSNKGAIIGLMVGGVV

human Aβ 1-28 peptide (human), sequence (peptide, as listed by the source): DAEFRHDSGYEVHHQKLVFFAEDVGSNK

Fold Selectivity (human Aβ 1-28 peptide [1]): > 95000 fold
Fold Selectivity (Scrambled 3pE-28 [2]): > 95000 fold
Fold Selectivity (mouse Aβ 3pE-28 peptide [3]): 3140 fold
Kd (human Aβ 3pE-28 peptide [4]): 0.0126 nM
koff (human Aβ 3pE-28 peptide [4]): 4.42e-05 s⁻¹
kon (human Aβ 3pE-28 peptide [4]): 3.53e+06 M⁻¹ s⁻¹
Kd (mouse Aβ 3pE-28 peptide [5]): 39.6 nM
koff (mouse Aβ 3pE-28 peptide [5]): 0.000404 s⁻¹
kon (mouse Aβ 3pE-28 peptide [5]): 10200 M⁻¹ s⁻¹
Kd (human Aβ 1-28 peptide [6]): > 1200 nM
Kd (Scrambled 3pE-28 [7]): > 1200 nM
Kd (HU-3pE-beta-Amyloid [8]): 0.0139 nM
B1: BAMB246 (human IgG1 chimera) (antibody)
heavy: not shown
light: DVVMTQTPLTLSVTIGQPASISCKSSQSLLDSNGKTYLTWLLQRPGQSPKRLIYLVSKLDSGVPDRFTGSGAGTDFTLKIIRVEAEDLGVYYCWQGTHFPYTFGGGTKLEIKRTVAAPSVFIFPPSDEQLKSGTASVVCLLNNFYPREAKVQWKVDNALQSGNSQESVTEQDSKDSTYSLSSTLTLSKADYEKHKVYACEVTHQGLSSPVTKSFNRGEC
notes: Mouse variable regions on a human IgG1 constant region; also called human chimeric parent; huIgG1 chimera

Fold Selectivity (human Aβ 1-28 peptide [1]): > 47000 fold
Fold Selectivity (Scrambled 3pE-28 [2]): > 47000 fold
Kd (human FcRn [9]): 349 nM
Kd (cynomolgus FcRn [10]): 268 nM
Fold Selectivity (mouse Aβ 3pE-28 peptide [3]): 1790 fold
Kd (human Aβ 3pE-28 peptide [4]): 0.0254 nM
koff (human Aβ 3pE-28 peptide [4]): 8.32e-05 s⁻¹
kon (human Aβ 3pE-28 peptide [4]): 3.27e+06 M⁻¹ s⁻¹
Kd (mouse Aβ 3pE-28 peptide [5]): 45.5 nM
koff (mouse Aβ 3pE-28 peptide [5]): 0.000338 s⁻¹
kon (mouse Aβ 3pE-28 peptide [5]): 7400 M⁻¹ s⁻¹
Kd (human Aβ 1-28 peptide [6]): > 1200 nM
Kd (Scrambled 3pE-28 [7]): > 1200 nM
Kd (HU-3pE-beta-Amyloid [11]): 0.0401 nM
koff (HU-3pE-beta-Amyloid [11]): 0.000136 s⁻¹
kon (HU-3pE-beta-Amyloid [11]): 3.39e+06 M⁻¹ s⁻¹
Kd (human Aβ 3pE-28 peptide [12]): 0.0254 nM
B2: BAMB674 (antibody, human IgG1, kappa)
heavy: not shown
light: DVVMTQSPLSLPVTLGQPASISCKSSQSLLDSRAKTYLTWLQQRPGQSPRRLIYLVSKLDSGVPDRFSGSGSGTDFTLKISRVEAEDVGVYYCWQGTHFPYTFGGGTKLEIKRTVAAPSVFIFPPSDEQLKSGTASVVCLLNNFYPREAKVQWKVDNALQSGNSQESVTEQDSKDSTYSLSSTLTLSKADYEKHKVYACEVTHQGLSSPVTKSFNRGEC
notes: Lead HFA variant, wild type human IgG1, HCDR2 N55S; also called BAMAB674; BAMB31 HFA mAb, wild type IgG1

Kd (HU-3pE-beta-Amyloid [11]): 0.0342 nM
koff (HU-3pE-beta-Amyloid [11]): 9.86e-05 s⁻¹
kon (HU-3pE-beta-Amyloid [11]): 2.88e+06 M⁻¹ s⁻¹
B3: BAMB700 (antibody, human IgG1, kappa)
heavy: not shown
light: B2 light with G105Q

Kd (HU-3pE-beta-Amyloid [11]): 0.0314 nM
koff (HU-3pE-beta-Amyloid [11]): 9.47e-05 s⁻¹
kon (HU-3pE-beta-Amyloid [11]): 3.01e+06 M⁻¹ s⁻¹
B4: BAMB701 (antibody, human IgG1, kappa)
heavy: QVQLVQSGAEVKKPGASVKVSCKASGHVFTSYDMYWVRQAPGQGLEWIGYIDSDSGDTSYNQKFKGRVTLTVDTSTSTVYMELSSLRSEDTAVYYCAYYRYAMDYWGQGTLVTVSSASTKGPSVFPLAPSSKSTSGGTAALGCLVKDYFPEPVTVSWNSGALTSGVHTFPAVLQSSGLYSLSSVVTVPSSSLGTQTYICNVNHKPSNTKVDKKVEPKSCDKTHTCPPCPAPELLGGPSVFLFPPKPKDTLYITREPEVTCVVVDVSHEDPEVKFNWYVDGVEVHNAKTKPREEQYNSTYRVVSVLTVLHQDWLNGKEYKCKVSNKALPAPIEKTISKAKGQPREPQVYTLPPSREEMTKNQVSLTCLVKGFYPSDIAVEWESNGQPENNYKTTPPVLDSDGSFFLYSKLTVDKSRWQQGNVFSCSVMHEALHNHYTQKSLSLSPGK
light: B2 light with L109V

Fold Selectivity (human Aβ 1-28 peptide [1]): > 46000 fold
Fold Selectivity (Scrambled 3pE-28 [2]): > 46000 fold
fold higher affinity compared with wt IgG1 (BAMB674) (human FcRn [13]): ~3 fold
fold higher affinity compared with wt IgG1 (BAMB674) (cynomolgus FcRn [14]): ~3 fold
Kd (human FcRn [9]): 111 nM
Kd (cynomolgus FcRn [10]): 86.4 nM
Fold Selectivity (mouse Aβ 3pE-28 peptide [3]): 3010 fold
Kd (human Aβ 3pE-28 peptide [4]): 0.0257 nM
koff (human Aβ 3pE-28 peptide [4]): 8.24e-05 s⁻¹
kon (human Aβ 3pE-28 peptide [4]): 3.24e+06 M⁻¹ s⁻¹
Kd (mouse Aβ 3pE-28 peptide [5]): 77.5 nM
koff (mouse Aβ 3pE-28 peptide [5]): 0.000333 s⁻¹
kon (mouse Aβ 3pE-28 peptide [5]): 4680 M⁻¹ s⁻¹
Kd (human Aβ 1-28 peptide [6]): > 1200 nM
Kd (Scrambled 3pE-28 [7]): > 1200 nM
Kd (HU-3pE-beta-Amyloid [11]): 0.0443 nM
koff (HU-3pE-beta-Amyloid [11]): 0.000166 s⁻¹
kon (HU-3pE-beta-Amyloid [11]): 3.74e+06 M⁻¹ s⁻¹
Kd (human Aβ 3pE-28 peptide [12]): 0.0257 nM
B5: BAMB675 (antibody, human IgG1, kappa)
heavy: B4 heavy
light: B2 light
notes: Same V regions as BAMB674; human IgG1 with M37Y, S39T, T41E (YTE) in the Fc (numbering on the constant region, GenBank AEV43323); also called BAMB31 HFA mAb, +YTE IgG1; +YTE mAb

Kd (HU-3pE-beta-Amyloid [8]): 0.0183 nM
B6: BAMB623 (antibody, human IgG1, kappa, V domains shown)
VH: QVQLVQSGAEVKKPGASVKVSCKASGHVFTSYDMYWVRQAPGQSLEWIGYIDSDNGDTSYNQKFKGKATMTVDTSTSTVYMELSSLRSEDTAVYYCAYYRYAMDYWGQGTLVTVSS
VL: DVVMTQSPLSLPVTLGQPASISCKSSQSLLDSRAKTYLTWLQQRPGQSPRRLIYLVSKLDSGVPDRFSGSGSGTDFTLKISRVEAEDVGVYYCWQGTHFPYTFGGGTKLEIKR
notes: HFA variant of BAMB31, human IgG1

Kd (HU-3pE-beta-Amyloid [8]): 0.018 nM
B7: BAMB631 (antibody, human IgG1, kappa, V domains shown)
VH: B6 VH with I48M, K67R, A68V, M70L
VL: B6 VL with Q42L
notes: as for B6

Kd (HU-3pE-beta-Amyloid [8]): 0.016 nM
B8: BAMB614 (antibody, human IgG1, kappa, V domains shown)
VH: B6 VH with S44G, K67R, A68V, M70L
VL: B6 VL
notes: as for B6

Kd (HU-3pE-beta-Amyloid [8]): 0.0117 nM
B9: BAMB612 (antibody, human IgG1, kappa, V domains shown)
VH: B6 VH with A40S, S44G, K67R, A68V, M70L
VL: B6 VL
notes: as for B6

Kd (HU-3pE-beta-Amyloid [8]): 0.0383 nM
B10: BAMB630 (antibody, human IgG1, kappa, V domains shown)
VH: B6 VH with R38K, A68V, M70L
VL: B6 VL with Q42L
notes: as for B6

Kd (HU-3pE-beta-Amyloid [8]): 1.52 nM
B11: BAMB611 (antibody, human IgG1, kappa, V domains shown)
VH: B6 VH with S44G, I48M, K67R, A68V
VL: B6 VL with R33N, A34G, L41F
notes: Human framework adapted (HFA) variant of BAMB31, human IgG1

Kd (HU-3pE-beta-Amyloid [8]): 0.0182 nM
B12: BAMB613 (antibody, human IgG1, kappa, V domains shown)
VH: B6 VH with S44G, A68V, M70L
VL: B6 VL
notes: as for B6

Kd (human Aβ 3pE-40 peptide): 0.053 nM
koff (human Aβ 3pE-40 peptide): 4.94e-05 s⁻¹
kon (human Aβ 3pE-40 peptide): 930000 M⁻¹ s⁻¹
Kd (human Aβ 3pE-28 peptide [15]): 0.0275 nM
koff (human Aβ 3pE-28 peptide [15]): 7.97e-05 s⁻¹
kon (human Aβ 3pE-28 peptide [15]): 2.89e+06 M⁻¹ s⁻¹
binding result (human Aβ1-40 peptide): no binding (tested: 50 nM)
B13: BAMB31_2a (mIgG2a) (antibody)
heavy: EIQLQQSGPELVKPGTSVKVSCKASGHVFTSYDMYWVKQSHGKSLEWIGYIDSDNGDTSYNQKFKGKATLTVDKSSSTAYMHLNSLTSEDSAVYYCAYYRYAMDYWGQGTSVTVSSAKTTAPSVYPLAPVCGDTTGSSVTLGCLVKGYFPEPVTLTWNSGSLSSGVHTFPAVLQSDLYTLSSSVTVTSSTWPSQSITCNVAHPASSTKVDKKIEPRGPTIKPCPPCKCPAPNLLGGPSVFIFPPKIKDVLMISLSPIVTCVVVDVSEDDPDVQISWFVNNVEVHTAQTQTHREDYNSTLRVVSALPIQHQDWMSGKEFKCKVNNKDLPAPIERTISKPKGSVRAPQVYVLPPPEEEMTKKQVTLTCMVTDFMPEDIYVEWTNNGKTELNYKNTEPVLDSDGSYFMYSKLRVEKKNWVERNSYSCSVVHEGLHNHHTTKSFSRTPGK
light: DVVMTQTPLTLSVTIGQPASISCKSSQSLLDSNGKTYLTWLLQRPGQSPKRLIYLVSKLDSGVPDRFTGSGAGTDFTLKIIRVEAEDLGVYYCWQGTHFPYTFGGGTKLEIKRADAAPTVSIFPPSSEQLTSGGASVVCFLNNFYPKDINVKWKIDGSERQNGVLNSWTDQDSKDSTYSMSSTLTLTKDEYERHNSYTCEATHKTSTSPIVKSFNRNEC
notes: BAMB31 V regions on murine IgG2a; also called BAMB31 (mIgG2a); mIgG2a parent
